{"source": "paper PMC3670040", "about": "“Structure of Lipid Kinase p110β/p85β Elucidates an Unusual SH2-Domain-Mediated Inhibitory Mechanism” (Molecular Cell, 2011)", "molecules": {"B1": {"name": "p110β-ΔCter/nic: truncation mutant lacking 17 residues from the p110β C terminus; human ΔCter (1-1053) used in cells (protein, UniProt P42338 1-1053, looked up, fragment)", "chain": "MCFSFIMPPAMADILDIWAVDSQIASDGSIPVDFLLPTGIYIQLEVPREATISYIKQMLWKQVHNYPMFNLLMDIDSYMFACVNQTAVYEELEDETRRLCDVRPFLPVLKLVTRSCDPGEKLDSKIGVLIGKGLHEFDSLKDPEVNEFRRKMRKFSEEKILSLVGLSWMDWLKQTYPPEHEPSIPENLEDKLYGGKLIVAVHFENCQDVFSFQVSPNMNPIKVNELAIQKRLTIHGKEDEVSPYDYVLQVSGRVEYVFGDHPLIQFQYIRNCVMNRALPHFILVECCKIKKMYEQEMIAIEAAINRNSSNLPLPLPPKKTRIISHVWENNNPFQIVLVKGNKLNTEETVKVHVRAGLFHGTELLCKTIVSSEVSGKNDHIWNEPLEFDINICDLPRMARLCFAVYAVLDKVKTKKSTKTINPSKYQTIRKAGKVHYPVAWVNTMVFDFKGQLRTGDIILHSWSSFPDELEEMLNPMGTVQTNPYTENATALHVKFPENKKQPYYYPPFDKIIEKAAEIASSDSANVSSRGGKKFLPVLKEILDRDPLSQLCENEMDLIWTLRQDCREIFPQSLPKLLLSIKWNKLEDVAQLQALLQIWPKLPPREALELLDFNYPDQYVREYAVGCLRQMSDEELSQYLLQLVQVLKYEPFLDCALSRFLLERALGNRRIGQFLFWHLRSEVHIPAVSVQFGVILEAYCRGSVGHMKVLSKQVEALNKLKTLNSLIKLNAVKLNRAKGKEAMHTCLKQSAYREALSDLQSPLNPCVILSELYVEKCKYMDSKMKPLWLVYNNKVFGEDSVGVIFKNGDDLRQDMLTLQMLRLMDLLWKEAGLDLRMLPYGCLATGDRSGLIEVVSTSETIADIQLNSSNVAAAAAFNKDALLNWLKEYNSGDDLDRAIEEFTLSCAGYCVASYVLGIGDRHSDNIMVKKTGQLFHIDFGHILGNFKSKFGIKRERVPFILTYDFIHVIQQGKTGNTEKFGRFRQCCEDAYLILRRHGNLFITLFALMLTAGLPELTSVKDIQYLKDSLALGKSEEEALKQFKQKFDEALRESW"}}, "test_system": "p110β/p85β-nic", "assay": "ATPase activity (ADP formation) in the absence of lipid substrate, Transcreener", "assay_type": "biochemical, mouse", "conditions": "35 nM complex; Figure 1D", "method": "Figure 1 Inhibition of p110β by p85-Type Regulatory Subunits and Activation of the Complexes by RTK Phosphopeptide (A) Domain organization of p110β and the regulatory subunits p85α, p85β, and p55γ. The color scheme for the domains is used for all figures, unless otherwise stated. […] The inhibition is released upon addition of the 10 μM PDGFR pY2. […] The y axis is expressed as a change in fluorescence polarization (ΔmP), which is obtained by subtracting the observed polarization for the construct at a given enzyme concentration from the maximum fluorescence polarization for that construct. The plateau in these assays arises due to the competitive nature of the ADP detection system, based on displacement of ADP-Alexa 633 tracer from the ADP^2-antibody by ADP generated during the PI3K assay (see Supplemental Experimental Procedures). All measurements were done in triplicates, and the error bars indicate the standard error of the mean (SEM). […]\nThe lipid kinase activity was determined using the Transcreener ADP2 FP Assay (BellBrook Labs, Madison, WI) according to manufacturer‟s specifications. This non-radioactive assay measures activity by quantitating the amount of ADP formed. The ADP formed by PI3K competes with fluorescent ADP tracer for binding to an anti-ADP antibody, thereby decreasing fluorescence polarization. […]", "data": [{"molecule": "B1", "values": [{"measurement": "ATPase activity in the absence of lipid substrate", "value": "increased"}]}]}
